Values joined by “and” are separate entries in the source; they are usually repeats but may differ in a detail not shown here. Equal values may be shown once. Read-outs that look alike come from different tables or passages of the source.
How the values were obtained:
[1] = molecular target: FLAG–Phd1-73 (PhdSTm antitoxin, His6 removed by thrombin) (Salmonella typhimurium); assay: SEC; HiLoad 16/600 Superdex 75pg, 4 C, Phd SEC buffer (0.025 M K2HPO4, 0.15 M NaCl, 5% glycerol, pH 8.0); mass from the manufacturer's calibration curves; last purification step
[2] = molecular target: Doc1-122–His6 (DocSTm toxin) (Salmonella typhimurium); assay: SPR; Biacore S200; Doc-His6 captured on NTA chip; Phd1-73 protein as analyte, multi-cycle kinetics, eight concentrations 25 nM to 0.390625 nM, association 200 s, dissociation 1500 s; 22 C; 10 mM HEPES, 500 mM NaCl, 50 uM EDTA, 0.005% TWEEN 20, pH 8.0; kinetic 1:1 fit with constant RMAX
[3] = molecular target: Doc1-122–His6 (DocSTm toxin) (Salmonella typhimurium); assay: as above; remark: listed apart in the source
[4] = test system: DocH66Y (E. coli P1 Phage); conditions: cited from earlier work
Text: (§1) page 23: Table S5. […] Organism Complex Kd (nM) SPR Kd (nM) ITC Reference S. Typhimurium Doc-Phd1-73 0.061 ± 0.019 - This study S. Typhimurium Doc-Phd52-73 (peptide 1) 0.073 ± 0.018 - This study E. coli P1 Phage Doc-Phd1-73 350 - 5 E. coli P1 Phage DocH66Y-Phd1-73 1300 - 5 E. coli P1 Phage Doc-Phd51-73 - 240 5 E. coli P1 Phage DocH66Y-Phd52-73 - 1 6 S23

Doc (E. coli P1 Phage) = conditions: ref 5 (ESI), read-out: Kd (nM) ITC; cited from earlier work
Text: as §1

[5] = molecular target: Doc1-122–His6 (DocSTm toxin) (Salmonella typhimurium); assay: SPR; Biacore S200; Doc-His6 captured on a Series S NTA chip (200-400 RU); peptide as analyte, single-cycle kinetics, six concentrations (3-fold dilutions), 30 uL/min; 22 C; 10 mM HEPES, 500 mM NaCl, 50 uM EDTA, 0.005% TWEEN 20, pH 8.0; kinetic 1:1 fit
[6] = molecular target: Doc1-122–His6 (DocSTm toxin) (Salmonella typhimurium); assay: as above; remark: listed apart in the source
[7] = molecular target: Doc1-122–His6 (DocSTm toxin) (Salmonella typhimurium); assay: as above; remark: listed apart in the source
[8] = molecular target: Doc1-122–His6 (DocSTm toxin) (Salmonella typhimurium); assay: as above; remark: listed apart in the source
[9] = molecular target: T1, Doc toxin of Salmonella enterica serovar Typhimurium (DocSTm) (Salmonella enterica serovar Typhimurium, UniProt A0A1C9CWN5 1-126); assay: differential scanning fluorimetry; DocSTm 5 μM with SYPRO Orange, 25 to 95 °C; 50 μM PhdSTm or peptide 1 (Figure 2a); 20 mM K2HPO4, 50 mM (NH4)2SO4, pH 8.0; shift of the melting temperature of DocSTm; conditions: both partners purified
[10] = molecular target: T1, Doc toxin of Salmonella enterica …; assay: SPR; DocSTm immobilised on a Series S NTA chip (150 nM, 200-400 RU); analytes in single-cycle kinetics, typically six concentrations, kinetic 1:1 fit; 22 °C; 10 mM HEPES, 500 mM NaCl, 50 μM EDTA, 0.005% TWEEN 20, pH 8.0; conditions: both partners purified
[11] = molecular target: T1, Doc toxin of Salmonella enterica …; assay: SPR; DocSTm immobilised on a Series S NTA chip; analytes in multicycle kinetics, kinetic and/or steady-state 1:1 fit (steady-state for peptide 14); 22 °C; 10 mM HEPES, 500 mM NaCl, 50 μM EDTA, 0.005% TWEEN 20, pH 8.0; conditions: both partners purified

With “FLAG–Phd1-73 (PhdSTm antitoxin, His6 removed by thrombin) (natural protein)” the stoichiometry N [1] was 2, the Kd [2] was 0.0507 nM and 0.0505 nM and 0.0883 nM and the koff [2] was 3.02e-05 s⁻¹ and 2.2e-05 s⁻¹ and 3.42e-05 s⁻¹. The kon [2] was 596000 M⁻¹ s⁻¹ and 436000 M⁻¹ s⁻¹ and 387000 M⁻¹ s⁻¹, the koff [3] was 2.9e-05 s⁻¹ and the kon [3] was 473000 M⁻¹ s⁻¹.

In the case of “Phd1-73 (E. coli P1 Phage): full-length Phd antitoxin from E. coli P1 phage, literature values”, the Kd ([4]; ref 5 (ESI), read-out: Kd (nM) SPR) is given as 1300 nM.

For “Phd51-73 (E. coli P1 Phage): Phd residues 51-73 of E. coli P1 phage, literature value (ALDAEFASLFDTLDSTNKELVNR; UniProt Q06253 51-73, looked up, fragment)”, the Kd (Doc (E. coli P1 Phage)) is given as 240 nM.

In the case of “Phd52-73 (E. coli P1 Phage): Phd residues 52-73 of E. coli P1 phage, literature value (LDAEFASLFDTLDSTNKELVNR; UniProt Q06253 52-73, looked up, fragment)”, the Kd ([4]; ref 6 (ESI), read-out: Kd (nM) ITC) is given as 1 nM.

In the case of peptide 1 (PhdSTm52-73), the koff [5] is reported as 9.1e-05 s⁻¹, the kon [5] is reported as 1.25e+06 M⁻¹ s⁻¹ and the kon [6] is reported as 1.1e+06 1/(M s) (2×) and 1.6e+06 1/(M s) and 1.3e+06 1/(M s).

Work on peptide 12 (PhdSTm52-73-N65A) yielded a Kd [5] of 0.145 nM, a koff [5] of 0.000203 s⁻¹ and a kon [5] of 1.4e+06 M⁻¹ s⁻¹. The kon [7] was 1.3e+06 1/(M s) (2×) and 1.6e+06 1/(M s) and 1.4e+06 1/(M s).

peptide 19 (PhdSTm52-73-K73A) gave a Kd [5] of 0.087 nM, a koff [5] of 0.000126 s⁻¹ and a kon [5] of 1.44e+06 M⁻¹ s⁻¹. For the same molecule, the kon [8] was 1.08e+06 M⁻¹ s⁻¹ and 2.12e+06 M⁻¹ s⁻¹ and 1.28e+06 M⁻¹ s⁻¹.

B1: peptide 1 (Phd 52-73, Ac-WMDDEFAAIMAVHGNELRELADK-OH) (peptide)
peptide: Ac-WMDDEFAAIMAVHGNELRELADK-OH
notes: tryptophan introduced at the N-terminus for spectrophotometric quantification; not part of Phd; also called wild-type peptide 1; C-terminal Phd peptide; source: synthetic peptide
In the case of B1, the “ΔTm of DocSTm (DSF)” value [9] is reported as 28.8 ± 0.9 °C and the Kd [10] is reported as 0.073 nM.

B2: Phd antitoxin of Salmonella enterica serovar Typhimurium, full-length (PhdSTm) (natural protein)
chain: MFMRTVNYSEARQNLAEVLESAVTGGPVTITRRGHKSAVIISAEEFERYQTARMDDEFAAIMAVHGNELRELADK
notes: also called PhdSTm 1-73; full-length Phd antitoxin
With B2 the “ΔTm of DocSTm (DSF)” value [9] was 31.3 ± 0.9 °C and the “half-life of the complex” value [11] was about 7 h.

Source: PMC9207808 (ACS Chemical Biology, 2022)
